Data from the DeepSol protein solubility set.

experiment: soluble on expression in E. coli; label from the status in PepcDB or PDB records

Row | Sequence | soluble on expression in E. coli
1 | MGSDKIHHHHHHMAGTTTTRKKFRVAVSGATVDGREIKPEHLRDAAANYSPDVYGARVNVEHYLSPYPDSDFGAMGDVTALSAEDITDGPLSGRTALYAEIEPSARMKQLTDAGKKVFSSIELHPQFALNGKAYVMGLAMTDTPASLGTERLKFATQQRAQVMAFNNQQAEAPMFSDAIEADVIELTAQRGEEGKQWFNRVMGIMGKGKKSDDERFSQVHQAVEVVAQSQADLSDQFSAVEQARASDKQAIEKLTSDFEALRQKLSVTDGSFSHRPPAGGGNNSQLADY | not soluble
2 | MAHHHHHHMGTLEAQTQGPGSMPIKSSLLIVVACALLDQDNRVLLTQRPEGKSLAGLWEFPGGKVEQGETPEASLIRELEEELGVHVQADNLFPLTFASHGYETFHLLMPLYFCSHYKGVAQGREGQNLKWIFINDLDKYPMPEADKPLVQVLKNFFI | soluble
3 | MALVKEVLVVLNRLSPFELQESWDNSGLNVGSENSEFSEIVACLEITLKIALNAPQNALIITHHPLIFKPLKTLNDEIYPGNILKILIQKNVSVISMHTNFDKTHLNKHFAHALLEFDGLVEKGLMLVKENANIEFDALVKKIKSSLGVGSLACVKSSQTIKDLAFVCGSGASMFSSLKAQSCLITGDVKYHDAMIAQSLGISLIDATHYYSERGFALIVAEILHSFNYLVTIENFKNPLQIILEHHHHHH | soluble
4 | MGSDKIHHHHHHMFSQNDNINILVIRFKRIGDAILSLPLCHSLKLTFPNSKVDFVLYEDVAPLFEGHPYIDNVITITKEEQKNPFKYIKKVYNVTRKKYDIIIDIMSTPKSELFCMFSRKTPFRIGRYKKKRGFFYNYKMKEKESLNKVDKFLNQLLPPFEEVGFDVKKDYDFKFFAEKKEKEKYKQKMLETGVDFSKPVIAFSIYSRVAHKIYPIDKMKEVVKFLINRYSAQIIFFYSADQKDEIQKIHKEIGDFKNIFSSIETPTIKNLVPFLENCDYYIGNEGGARHLAQGVGIPTLAIFSPSADLKEWLPFPSEKNMGISPIDMLEKNALSLDDFNKMNPEEQFSLIDIETIKEMSDELIEKNKRK | not soluble
5 | MSLGAFLDKPKTEKHNAHGAGNGLRYGLSSMQGWRVEMEDAHTAVVGIPHGLEDWSFFAVYDGHAGSRVANYCSTHLLEHITTNEDFRAAGKSGSALELSVENVKNGIRTGFLKIDEYMRNFSDLRNGMDRSGSTAVGVMISPKHIYFINCGDSRAVLYRNGQVCFSTQDHKPCNPREKERIQNAGGSVMIQRVNGSLAVSRALGDYDYKCVDGKGPTEQLVSPEPEVYEILRAEEDEFIILACDGIWDVMSNEELCEYVKSRLEVSDDLENVCNWVVDTCLHKGSRDNMSIVLVCFSNAPKVSDEAVKKDSELDKHLESRVEEIMEKSGEEGMPDLAHVMRILSAENIPNLPPGGGLAGKRNVIEAVYSRLNPHRESDGGAGDLEDEGHHHHHH | soluble
6 | RMSSQIRQNYSTDVEAAVNSLVNLYLQASYTYLSLGFYFDRDDVALEGVSHFFRELAEEKREGYERLLKMQNQRGGRALFQDIKKPAEDEWGKTPDAMKAAMALEKKLNQALLDLHALGSARTDPHLCDFLETHFLDEEVKLIKKMGDHLTNLHRLGGPEAGLGEYLSSKGSLSSTTKSLLSPATSEGPLAK | soluble
7 | MGSDKIHHHHHHMKRLAFVISSLGAGGAEKVLSLMSHYLAQKGISLTLISLGDSKSFYPLPAQAKIIALGECRSSKGVIDSLFQNLRRIQKLRQALRAARPDLILSFMTETNILSIIAAKSLGIPVIASEHTNYLWQPSRLWNRLRHLLYPLASATTLLTQRDKENHYGFLPQAKILPNPFDFPPLSPTPKEKIILGVGRLIKDKGFDRLIRAFSRISIGDYQLLIAGEGEERVRLEELIQSLGMEEKIHLLGSQKEIYPLYERASIFVLSSSMEGLSNALIEAMSMGCAVISFDCPYGPSEVITPQENGLLVPLHDEVALQEAMERLIQEEPLRQKLSQNAPKVRERFAIDRVMPQWEELMRSILDSTPSCSKES | not soluble
8 | MGSDKIHHHHHHMDEALRTYIRVVELQSFTKAAEELHISQPAVSLQLKKLEEIYETELIYRQAKKFILTATGEILYHRAKQLEGLYKQVEDEISLYHHHLKGRLRIGASFTIGEYFLPEVIAKFHALYPDITIELIIENTAKIADKVELLQVDTGLIEGQVSKKDLEISAFSDDEMCIVGRADGSLTEIEQGATWIAREEGSGTREYLDHVLSTNGWNVAEKVVAWSNMAVKQMVLEGMGYTVISKCVVQTEITSGKLQTFNEAGSLMRKFSVLKNRQRLENRIAETFLTFLKENQ | not soluble
9 | MSLKHRIEYAITNAVFVKADELSYLSFRVSGKVIEVYKDLGDYVKRGEALAKLDPTYYELEKRTLEKKMSALLEKKKALEIKIQKLEKGLHISLSAKKLKVESLKKKREALREKLLQVEEKIKLVKLDWERYKSLFQKGLIPRRKFEEVDTNLKVLLHEREYLEKSIQEINTEIKRAKKGIENARNEFKTIEELKKELSSLEEEIKSLKERIKTAEQKIKDTVLIAPFDGVVAKRFISRGDVVRAGQPAFALVNPESFYVEVLLEETKLKGVKVGNKAYVRLDAYPDILFEGVVEEISPASAATFALVPRDVSAGEFTKVVQRIPVKIKITKGDLSLLRVGMGGEVEIRRTREGHHHHHH | soluble
10 | SLEIERINEHTVKFYMSYGDIEDRGFDREEIWYNRERSEELFWEVMDEVHEEEEFAVEGPLWIQVQALDKGLEIIVTKAQLSKDGQKLELPIPEDKKQEPASEDLDALLDDFQKEEQAVNQEEKEQKLQFVLRFGDFEDVISLSKLNVNGSKTTLYSFENRYYLYVDFCNMTDEEVENQLSILLEYATESSISIHRLEEYGKLIISEHALETIKKHFAS | soluble
11 | MSLTTLNIGLILPDVLGTYGDDGNALVLRQRARMRGINAEIQRVTLDDAVPSTLDLYCLGGGEDTAQILATEHLTKDGGLQTAAAAGRPIFAVCAGLQVLGDSFRAAGRVIDGLGLIDATTVSLQKRAIGEVETTPTRAGFTAELTERLTGFENHMGATLLGPDAEPLGRVVRGEGNTDVWAASENTDDQRQQFAEGAVQGSIIATYMHGPALARNPQLADLMLAKAMGVALKDLEPLDIDVIDRLRAERLAEGHHHHHH | soluble
12 | MGDWMIENKVRDVVKKLKPYVPGKSKEEIARAYGIKPEDIIKLGSNENPWGPSPKIKEKILDEIDKIHQYPEPVNPILMKELSKFLNVDEENIIVGGDGADEIIDTIFRTFVDDGDEVIIPIPTFTQYRVSATIHNAKIKYAKYDKEKDFKLNVESVLNNITDKTKVIFLCTPNNPTGNIIENRDVERVINETDALVVIDHAYIEYAKKEYDWTQKAPEYDNVIVLRTFSKVFGLAGMRVGYGVANKKIIDYMMRVKPIFSLTRLSQVCAITALRDREFFERCVRDGIKSREMLYNGLKKFKDIKVYPSEANYLLVELKTMKAKEFCEELLKRGVIVRDCTSFDGLGDNYVRVSIGTFEEVERFLKILEEIIS | not soluble
13 | SLVGTPNLLTLDEADATWTLIKDKVIEEHFGPNAVAVPFLSDAACYDLLGVLVKQSRPAHTRLALPGRQGRRALKPVGPLPSLLEQAGSEGAFAHCTREYSPNGRAERAYEETRMLDGQPCKIRLHMGDLRKKVAFLLLPPGQVSLQQTLPWLRSTHSIYVIYQVFSCSWLQLGLTSTAREPQLLRLLRSLPVAFSCLKFSLQSKGVLGPQKPLTKDPLPHGANWVRPNLSIMPPLAPTSASADTTEAADVPPPVPAPPTPPPQEGPEDKPTRFSYKGRNPFWRGPQILSENWLFSPRSPPPGAQGGGPRDPDGHSMSLPLLQGLSSEFDSDD | not soluble
14 | MGSDKIHHHHHHMRRCPLCTSEETAPFYQDRKRCIYRCKRCMLLFADANSHLPPSAEVKRYRSANSKDKPLQQFLSSLITQCEQQVQGPLLGLNFGRLLNPQAIDAIKARGHQLNQYDPHFAPDHTLLRLEYDFICCYRVFEHFRFPGKEWQLLCSLLKPGGWMAISTQLLTELQGFPKWHHKNNLTHVSFYQQATFQYLASQAEFRLLFASKDLILVQKPTGSGITRDPSSLI | not soluble
15 | MNDHSQLFRLLALLLDYPRAELREESLGLHALIRTCELPEALRDGLAALLNELCQGDLLDVQARYDGLFERGRSVSLLLFEHVHGESRDRGQAMVDLLDRYTGAGLQIDVPELPDYLPLYLEYLSLLPFAAASEGLAEVAHILGLLALRLEERGSAYAAIFEALLELGGERPDLGALRRDQAQEQRDDSLEAIDRAWEETPVSFTDPAGGCPSSSGRRPTASTEQPLQWVAQPVPQM | not soluble
16 | MQRLEESTSCRGVGDMRKAIIVGVGMTPVGEHWRSSLRDLAVEAILNAMDDAGIDKVDSLYVGNMASGSFVEQENLGALIADWAGLGNIPAVKIEAACASGGAAVQEGAKAVLSGLEDVVLVVGVEKMTDAWPSDATRYLGYAADAEWELFHGASFVALNALIMRLYMNTYGYKEEDLALFAVNAHANGAKNPYAMFKKPITVETVMKSPYIADPLKLFDASPVCDGAAAVIITTPEKAKELGIPKDKWIEIAGMGRAIDTINLANREDFLTLKAATIAAERAYKMAGVKPEDVDFFEVHDAFTVMAALSLEALGVAKKGEGAKLAIEGQIAIDGDYPIQTMGGLKARGHPVGATGVYQVVEAVLQLRGEAPDGIQVPDAEVGLTQNIGGTGSNITVTVLRRV | not soluble
17 | MEFAKMCFEKLYGVDTSEAKEMYNSVYDVMKAMLKEYTVIFKGPNTQSSQSNPPSSTAARDIFACELAEDSNVEFERMDRSYKEMVNEIRVTDPKDELDIYLKAEVENPKTLPGMEWDVLSWWRLNSQKYPVLSEIARDVLAMQVSYVASESAFSTSGRLLEPSRSCLTHYMVETLVCLEQWLKSEIKLSENTFLTNTQLLADIELLDKLEKGNFIYVVY | soluble
18 | MGSDKIHHHHHHMSDASKPDSNEVREIRINPVVPGESVLVATARSMRPKKAEELAPRDTRKHVETCPFCRGNEHKTPPAILTWPDTGDWQIRMVENLYPVLGDDRAQAGFTFGLQQTIDGYGRHEVIIDHSEHGIAVQDMAETHLAALFGVYQTRMRQLFDSDERLKYVLVFKNFGPAAGASIPHTHSQVIAMPVVPENVDAEVRNSATHYAKHHHCIFCALIDEALTFEATIYDRNSGAVRRKINVGQYVVERGEKFIAIKPFASRYEWEVHILPLAHQADFLDVRGEDLADLARVMKRTMARLDAVIGGAQYNFFLHSVPHDAQQATHAPSYHWHLEICPRTSIPTGFELGSGLFVNTINPEEAAERLRSVELPAR | not soluble
19 | MIDRQTNEPKQKTRIILAPMQGLVDDVMRDLLTRIGGYDECVSEFVRITHTVHSRSIWLKYVPEIANGNKTFSGTPCTVQLLGSDADNMAANALEAVRFGANKIDLNFGCPAPTVNKHKGGAILLKEPELIFHIVKTLRGRLPAHIPLTAKMRLGYEDKSRALECACAIAEGGACGLTVHARTKAEGYEPPAHWEWIRKIRDSVNIPVTANGDVFSLQDYIGIKTISGCNSVMLGRGAVIRPDLARQIKQYENGGPVKDTDFAEVSKWIRQFFELCLTKEANNKYPLARLKQWLGMMKKEFAAAQNLFDRVRTVKDADEVRNILAEFEREMNT | not soluble
20 | MQIVQIARPGSMKGWIRKAVARYAHATGRGGKFYRRFCNPSGLEWGAYLARWGNFHSVGSNFYVNTGCKFLDPSLVRIGNSVGLSDCTLIGHDGVVLLIEHRFGKHLDSVGFIDIKDNCFIGHGAIVMPRVTIGPESIVAAGAVVTKDVPPGTVYGGNPAEFICTTEQLIKRVEARCEAYPWIDLVKQRNGAYDPEVEPLLMAQRRQYFFGDSLEHHHHHH | not soluble
